Article PMC3057111
Residue numbers refer to the chain shown, from its start.

Columns and labels:
hnRNPLL RRM1 WT [1] = molecular target: T1, hnRNPLL RRM1 WT (Mus musculus, UniProt Q921F4 109-213); assay: NMR titration
T1 sequence: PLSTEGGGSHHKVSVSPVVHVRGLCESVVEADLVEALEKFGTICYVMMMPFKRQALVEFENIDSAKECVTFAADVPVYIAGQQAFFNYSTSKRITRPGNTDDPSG

[2] = molecular target: T2, hnRNPLL RRM1 V136D (thunder) (Mus musculus, UniProt Q921F4 109-213, V136D); assay: ITC
T2 sequence: T1 sequence with V28D

hnRNPLL RRM1 WT [3] = molecular target: T1, hnRNPLL RRM1 WT; assay: ITC
[4] = molecular target: T2, hnRNPLL RRM1 V136D (thunder); assay: NMR titration
hnRNPLL RRM1 WT [5] = molecular target: T1, hnRNPLL RRM1 WT; assay: NMR titration; remark: listed apart in the source
hnRNPLL RRM1 WT [6] = molecular target: T1, hnRNPLL RRM1 WT; assay: NMR titration; remark: listed apart in the source
[7] = molecular target: T2, hnRNPLL RRM1 V136D (thunder); assay: NMR titration; remark: listed apart in the source
[8] = molecular target: T2, hnRNPLL RRM1 V136D (thunder); assay: NMR titration; remark: listed apart in the source

B1: Ptprc exon 6 ARS 15-mer WT (ssRNA)
RNA: CCUUACCUGCACGCA
Work on B1 yielded a Kd (hnRNPLL RRM1 WT [1]) of 1500 ± 1300 nM, a Kd [2] of 3100 ± 1400 nM and a Kd (hnRNPLL RRM1 WT [3]) of 1900 ± 400 nM. It also gave a Kd [4] of 1000 ± 400 nM, a Kd (hnRNPLL RRM1 WT [5]) of 700 ± 700 nM and a Kd (hnRNPLL RRM1 WT [6]) of 100 nM. For the same binder, the Kd [7] was 1100 ± 400 nM and the Kd [8] was 2000 ± 700 nM.
